Source: US20220348670A1 (BIODURO BEIJING, published 2022)

T1: full-length human OX40 protein (human, UniProt P43489 29-277)
T1 sequence (looked up): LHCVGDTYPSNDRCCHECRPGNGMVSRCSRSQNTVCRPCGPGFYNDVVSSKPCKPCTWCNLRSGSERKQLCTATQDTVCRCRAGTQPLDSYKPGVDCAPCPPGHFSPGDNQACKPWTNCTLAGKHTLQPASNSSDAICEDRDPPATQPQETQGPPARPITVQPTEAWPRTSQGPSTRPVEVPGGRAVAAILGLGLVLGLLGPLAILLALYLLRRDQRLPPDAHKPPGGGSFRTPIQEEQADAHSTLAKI

T2: OX40-mFc protein (UniProt P43489 29-214)
T2 sequence (looked up): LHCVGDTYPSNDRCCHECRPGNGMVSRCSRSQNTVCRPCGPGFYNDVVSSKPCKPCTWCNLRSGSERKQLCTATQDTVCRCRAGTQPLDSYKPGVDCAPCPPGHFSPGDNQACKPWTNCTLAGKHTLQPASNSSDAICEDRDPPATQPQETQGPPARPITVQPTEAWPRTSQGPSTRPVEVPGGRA

T3: murine full-length OX40 (murine, UniProt P47741 20-272)
T3 construct: whole, on cells; also called CHOS-OX40 (mus); PCMV3-OX40 (Mus)
T3 sequence (looked up): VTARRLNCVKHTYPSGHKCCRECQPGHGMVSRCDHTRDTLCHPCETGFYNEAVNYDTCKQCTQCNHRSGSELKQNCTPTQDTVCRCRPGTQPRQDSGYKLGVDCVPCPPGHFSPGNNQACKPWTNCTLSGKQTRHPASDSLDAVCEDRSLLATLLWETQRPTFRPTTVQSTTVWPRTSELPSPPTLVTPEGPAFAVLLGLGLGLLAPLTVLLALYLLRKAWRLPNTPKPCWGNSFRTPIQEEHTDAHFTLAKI

T4: OX40 (CRD3-4human) (human, UniProt P43489 108-277, limits assumed)
T4 construct: domain: CRD3-4; Named only in the results sentence; its construction is not described; also called CHOS-OX40 (CRD3-4human)
T4 sequence (looked up): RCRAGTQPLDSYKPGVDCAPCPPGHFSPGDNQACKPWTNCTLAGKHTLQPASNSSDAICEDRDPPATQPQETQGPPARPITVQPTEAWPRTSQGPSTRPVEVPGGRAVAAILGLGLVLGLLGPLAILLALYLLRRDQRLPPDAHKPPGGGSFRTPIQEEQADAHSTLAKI

B1: OX40 BC3-1 (phage-displayed VHH clone) (VHH)
VHH: EVQLVESGGGLVQPGGSLRLSCAASGSIFSVYVMGWFRQAPGKGRELVAAITPFDDNTYYPDSVEGRFTISRDNAKRMVYLQMNSLRAEDTAVYYCAADWEWPEYNYWGQGTQVTVSS
notes: Tested as phage in monoclonal culture supernatant (M13 display), not as purified protein; the phage coat fusion is not described
B2: anti-human OX40 antibody BC3-1 (OX40 VHH-Fc) (Fc fusion)
chain: B1 VHH
notes: VHH fused through a linker to human IgG Fc, expressed in ExpiCHO, purified on Protein A; also called OX40 BC3-1; OX40 VHH-Fc antibody; not shown: linker encoded by the CMV-12GS-FC vector; human IgG FC fragment (hFC)
B3: OX40 BC3-6 (phage-displayed VHH clone) (VHH)
VHH: EVQLVESGGGLVQPGGSLRLSCAASGSILDSNLMGWFRQAPGKGRELVASINSYDDNTYYPDSVEGRFTISRDNAKRMVYLQMNSLRAEDTAVYYCAAQVFVGWPYTDQMHDYWGQGTQVTVSS
notes: as for B1
B4: anti-human OX40 antibody BC3-6 (OX40 VHH-Fc) (Fc fusion)
chain: B3 VHH
notes: VHH fused through a linker to human IgG Fc, expressed in ExpiCHO, purified on Protein A; also called OX40 BC3-6; OX40 VHH-Fc antibody; not shown: linker encoded by the CMV-12GS-FC vector; human IgG FC fragment (hFC)
B5: OX40 BC3-4 (phage-displayed VHH clone) (VHH)
VHH: EVQLVESGGGLVQPGGSLRLSCAASGFIFSAYFMGWFRQAPGKGRELVAAINSNDDITYYPDSVEGRFTISRDNAKRMVYLQMNSLRAEDTAVYYCAAWLGAENYGYWGQGTQVTVSS
notes: as for B1
B6: anti-human OX40 antibody BC3-4 (OX40 VHH-Fc) (Fc fusion)
chain: B5 VHH
notes: VHH fused through a linker to human IgG Fc, expressed in ExpiCHO, purified on Protein A; also called OX40 BC3-4; OX40 VHH-Fc antibody; not shown: linker encoded by the CMV-12GS-FC vector; human IgG FC fragment (hFC)
B7: OX40 BC3-7 (phage-displayed VHH clone) (VHH)
VHH: EVQLVESGGGLVQPGGSLRLSCAASGSIYDFDVMGWFRQAPGKGRELVAAINSFGDITYYPDSVEGRFTISRDNAKRMVYLQMNSLRAEDTAVYYCAADWHVLIQQVLGYWGQGTQVTVSS
notes: as for B1
B8: anti-human OX40 antibody BC3-7 (OX40 VHH-Fc) (Fc fusion)
chain: B7 VHH
notes: VHH fused through a linker to human IgG Fc, expressed in ExpiCHO, purified on Protein A; also called OX40 BC3-7; OX40 VHH-Fc antibody; not shown: linker encoded by the CMV-12GS-FC vector; human IgG FC fragment (hFC)

Assays:
[1] = biological target: T1, full-length human OX40 protein; assay: cell-based or functional assay
[2] = biological target: T1, full-length human OX40 protein; assay: FACS on L929-hOX40 cells, PE anti-human FC secondary antibody
Method: The L929-hOX40 stable cell line constructed in Example 2.1 was cultured and expanded to 90% confluence in a cell culture flask. After washing with PBS, the cell culture was digested with 0.25% Trypsin (purchased from Thermofisher) to form a single-cell suspension, neutralized with 10% FBS-containing medium, and counted. After centrifugation at 1000 rpm for 5 min, the cells were resuspended to 2×10⁶ cells/mL with FACS buffer (PBS+1% FBS), added to a 96-well FACS culture plate at 200 μL per well, centrifuged at 1000 rpm for 5 min and the supernatant was removed. A series of concentration gradients of anti-human OX40 antibodies to be tested or isotype control were added at 200 μL per well, and incubated at 4° C. for 1 hour in the dark. After centrifugation at 1000 rpm for 5 min, 200 μL of PE fluorescently labeled anti-human FC secondary antibody (purchased from Invitrogen) was added to each well, and incubated at 4° C. for 1 hour in the dark. After washing twice with FACS buffer, PBS buffer containing 1% paraformaldehyde at 200 μL per well was added to resuspend the cells, and a FACS instrument (BD Accuri C6) was used for detection and analysis.

[3] = biological target: T1, full-length human OX40 protein; assay: FACS on Jurkat-hOX40 cells, PE anti-human FC secondary antibody
Method: Jurkat-hOX40 stable cell lines constructed in Example 2.1 were expanded and cultured in a cell culture flask, and cells in the logarithmic growth phase were counted. The cells were centrifuged at 1000 rpm for 5 min and then resuspended in FACS buffer (PBS+1% FBS) to 2×10⁶ cells/mL, and added to a 96-well FACS culture plate at 200 μL per well. After centrifugation at 1000 rpm for 5 min, the supernatant was removed, and a series of concentration gradients of purified anti-human OX40 antibodies to be tested or isotype control were added at 200 μL per well, incubated at 4° C. for 1 hour in the dark, centrifuged at 1000 rpm for 5 min, and then added with 200 μL of PE fluorescently labeled anti-human FC secondary antibody (purchased from Invitrogen) per well, and incubated at 4° C. for 1 hour in the dark. After washing twice with FACS buffer, PBS buffer containing 1% paraformaldehyde at 200 μL per well was added to resuspend cells, and a FACS instrument (BD Accuri C6) was used for detection and analysis.

OX40-mFc protein = biological target: T2, OX40-mFc protein; assay: phage ELISA, monoclonal phage supernatant on OX40-mFc
Milk = assay: phage ELISA, monoclonal phage supernatant on milk (background control)
murine full-length OX40 = biological target: T3, murine full-length OX40; assay: FACS on transiently transfected CHO-S cells
From the text: (§1) Transient transfection of OX40 expression vector: CHO-S cells were revived, and passaged for at least 2 times, and then seeded into a 6-well plate at a density of 1×10⁶ cells/well. At the following day, the above expression vectors expressing different domains of OX40 were transfected into CHO-S cells by PEI transfection method.

OX40 (CRD3-4human) = biological target: T4, OX40 (CRD3-4human); assay: FACS on transiently transfected CHO-S cells
From the text: as §1

Row | Molecule | Maximum value (RLU), NF-kB reporter gene assay [1] [RLU] | Maximum mean fluorescence intensity value (MFI) [2] [MFI] | Maximum mean fluorescence intensity value (MFI) [3] [MFI] | ELISA Results (OD450) (OX40-mFc protein) | ELISA Results (OD450) (Milk) | EC50, NF-kB reporter gene assay [1] [pM] | binding result (murine full-length OX40) | binding result (OX40 (CRD3-4human)) | EC50 [2] [pM] | EC50 [3] [pM]
1 | Isotype control (human IgG) (antibody) | 2650 | 8960 | 999 |  |  |  |  |  |  | 
2 | B1 |  |  |  | 3.45 | 0.047 |  |  |  |  | 
3 | B2 | 53400 | 285000 | 17500 |  |  | 209 | no binding | no binding | 488 | 256
4 | B3 |  |  |  | 3.21 | 0.045 |  |  |  |  | 
5 | B4 | 50300 | 198000 | 12800 |  |  | 162 | no binding | no binding | 545 | 683
6 | B5 |  |  |  | 3.31 | 0.045 |  |  |  |  | 
7 | B6 | 55700 | 308000 | 24000 |  |  | 175 | no binding | no binding | 862 | 395
8 | B7 |  |  |  | 3.12 | 0.045 |  |  |  |  | 
9 | B8 | 48400 | 327000 | 24100 |  |  | 130 | no binding | no binding | 693 | 548
